Tests used:
[1] = compared with H2; cited from earlier work
[2] = tested on: (wet) age-related macular degeneration; test: Case of a patient with (wet) age-related macular degeneration: hydrogen aspiration and hydrogen water, Lucentis and laser therapy; type: in vivo, human
Procedure: A patient felt itchiness on the left eye in September 2013, took their glasses off, and covered their left eye.
Lucentis (R) was injected in the vitreous body of the patient and the patient received laser therapy after 1 week. After additional 1 month, Lucentis (R) was re-injected.
After 10 months, the injection was discontinued and only a test was continued. Thereafter, the patient visited the hospital once in three months and their pathological conditions were checked by a test.
Then, the patient received the second laser therapy, and Lucentis (R) injection approximately once a month.
The doctor recommended that the patient receive another laser therapy if the result of injection in February was bad.
After that, the patient received Lucentis (R) injection. One week after the injection, detailed fundus examination was conducted to check their pathological conditions.
Then, the patient daily drank 500 ml/morning and 500 ml/night of the water for 1 month.
When the patient received Lucentis (R) injection on Apr. 11, 2018, their pathological conditions were checked. […] However, after one week, the patient was re-examined.

Molecule: [2H][2H] [D2, deuterium]
- superoxide-scavenging action [1]: stronger superoxide-scavenging action than H2

Molecule: [HH] [hydrogen, molecular hydrogen]
- visual acuity of the eye with age-related macular degeneration ([2]; after aspirating hydrogen and drinking hydrogen water, improved from 0.1): 1.2
- choroidal neovascularization (detailed fundus examination) ([2]; gaseous hydrogen about 4% by volume aspirated about 2 hours x 3 (7-day interval), February 2018, then Lucentis injection, examined one week after the injection): degeneration

B1: ranibizumab (antibody, chains of the INN, looked up, V domains shown)
VH: EVQLVESGGGLVQPGGSLRLSCAASGYDFTHYGMNWVRQAPGKGLEWVGWINTYTGEPTYAADFKRRFTFSLDTSKSTAYLQMNSLRAEDTAVYYCAKYPYYYGTSHWYFDVWGQGTLVTVSS
VL: DIQLTQSPSSLSASVGDRVTITCSASQDISNYLNWYQQKPGKAPKVLIYFTSSLHSGVPSRFSGSGSGTDFTLTISSLQPEDFATYYCQQYSTVPWTFGQGTKVEIK
modifications: Fab
notes: an anti-VEGF drug, ranibizumab; Novartis Pharma K. K
- effects of laser therapy and Lucentis injection ([2]; during three years before initiation of hydrogen gas inhalation): no effects
- therapeutic effect ([2]; first course: intravitreal injection, laser therapy after 1 week, re-injection after additional 1 month): therapeutic effect appeared
- test result after injection ([2]; injection in January 2018): very bad
- treatment outcome ([2]; same treatment repeated two years later after worsening): not good
